Experiments:
[1] = biological target: T1, Human NPR-B (Homo sapiens, UniProt P20594); assay: Biacore SPR kinetic affinity binding to immobilized NPR-B
T1 construct: purchased R&D system
T1 sequence (P20594 23-458 limits assumed): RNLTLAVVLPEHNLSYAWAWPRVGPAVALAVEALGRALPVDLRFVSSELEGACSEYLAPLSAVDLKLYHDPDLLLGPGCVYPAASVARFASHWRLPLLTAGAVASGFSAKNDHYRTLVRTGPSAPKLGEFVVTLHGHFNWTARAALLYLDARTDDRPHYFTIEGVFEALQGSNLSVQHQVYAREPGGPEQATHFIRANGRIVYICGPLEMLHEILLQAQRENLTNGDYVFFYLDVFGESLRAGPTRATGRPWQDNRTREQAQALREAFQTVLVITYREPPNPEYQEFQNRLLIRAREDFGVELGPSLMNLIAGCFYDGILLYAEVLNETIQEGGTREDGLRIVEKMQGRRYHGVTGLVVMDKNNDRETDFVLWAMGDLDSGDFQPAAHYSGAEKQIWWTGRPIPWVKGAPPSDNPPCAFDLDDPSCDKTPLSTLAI
Protocol: The biological function of these purified protein was assayed for their stimulation of production of cGMP, using NPR-B receptor positive cell line, NIH/3T3 and NPR-B negative cell line HEK293 cells. The determination of cGMP was assay by ELISA using commercial CNP as standard curves. […] Surface preparation. NBR-B was immobilized at different levels in three flow cells via standard amine coupling, leaving Fc 1 unmodified to serve as a reference. All surface plasmon resonance (SPR) analysis was performed on a BIAcore 3000 system using series CM5 sensor chips. Data processing and analysis were performed using BIAevaluation software. All sensorgrams were double referenced by subtracting the response on a reference flow cell and a blank sample. Human NPR-B (R&D system) was covalently attached to a CM5 chip via amine coupling. A surface density of 6600 RU was used for measurements with natriuretic peptides Sequential injections of CNP (0.5-8 nM) were performed at a flow rate of […] (300 s for each), followed by a dissociation time of 900 s. […] Kinetic parameters were calculated assuming a simple 1:1 (Langmuir) binding. […] All SPR analysis was performed on a BIAcore 3000 system using series CM5 sensor chips. Data processing and analysis were performed using BIAevaluation software. All sensorgrams were double referenced by subtracting the response on a reference flow cell and a blank sample. Human NPR-B (R&D system) was covalently attached to a CM5 chip via amine coupling. A surface density of 3100 RU was used for measurements with natriuretic peptides Sequential injections of AMI263 (FC4-CNP) (0.125-2 nM) were performed at a flow rate of […] (300 s for each), followed by a dissociation time of 900 s. […] Kinetic parameters were calculated assuming a simple 1:1 (Langmuir) binding. […] All SPR analysis was performed on a BIAcore 3000 system using series CM5 sensor chips. Data processing and analysis were performed using BIAevaluation software. All sensorgrams were double referenced by subtracting the response on a reference flow cell and a blank sample. Human NPR-B (R&D system) was covalently attached to a CM5 chip via amine coupling. […] Kinetic parameters were calculated assuming a simple 1:1 (Langmuir) binding. […] All SPR analysis was performed on a BIAcore 3000 system using series CM5 sensor chips. Data processing and analysis were performed using BIAevaluation software. All sensorgrams were double referenced by subtracting the response on a reference flow cell and a blank sample. Human NPR-B (R&D system) was covalently attached to a CM5 chip via amine coupling. A surface density of 3100 RU was used for measurements with natriuretic peptides Sequential injections of AMI263 (FC4-CNP) (0.5-300 nM) were performed at a flow rate of […] (300 s for each), followed by a dissociation time of 900 s. […] Kinetic parameters were calculated assuming a simple 1:1 (Langmuir) binding. […] All SPR analysis was performed on a BIAcore 3000 system using series CM5 sensor chips. Data processing and analysis were performed using BIAevaluation software. All sensorgrams were double referenced by subtracting the response on a reference flow cell and a blank sample. Human NPR-B (R&D system) was covalently attached to a CM5 chip via amine coupling.

[2] = system: HEK293 cells; assay: CNP-Fc ELISA of supernatant of AAV-transduced HEK293 cells; format: cell-based, Human; conditions: CNP-Fc in HEK293 supernatant 5 days after transduction with 100,000 MOI of AAV2 N54 vector
Protocol: C-type natriuretic peptide (CNP) has two isoforms, CNP-22 and CNP-53. Example 2 illustrates that CNP-36 fused with Fe increased the half-life of the CNP and also facilitated in purification and ELISA detection when compared to native (unfused) CNP. Transduction and CNP-Fc expression experiments were performed with three AAV vectors (AMI061, AMI087 and AMI0488). FIG. 1A is the pictorial depiction of the three vectors. FIGS. 1B-F illustrate additional vectors that can encode the CNP or the CNP fusion protein. Enzyme-linked immunoassay (ELISA) was developed for quantifying CNP-Fc fusion proteins in cell culture supernatants. The ELISA assay was used to quantify CNP-Fc expressed in HEK293 cells, human chondrocytes (HCH) cells, and human skeletal muscle cells (hSkMC) upon transduction with one of the three AAV constructs described herein.
Buffer and substrate. Coating buffer: 3.7 g sodium bicarbonate, 0.64 g sodium carbonate in 1 L of Milli Q water, pH 9.6. Stored at RT; Blocking buffer: Commercial Casein blocking buffer in PBS+ added 0.1% Tween20. Stored at 4° C.; Standard diluent: same as blocking buffer; Wash buffer: 1×PBS with 0.1% tween 20 (30 days expiry from date of manufacture); Coating Antibody (Ab): Human CNP Antibody (monoclonal), coating concentration was 2 μg/mL; Detection Ab: Goat pAb anti-human Fc. Diluted up to 1:20,000 final dilution in well. Stored at 4° C.; HRP: Streptavidin-HRP stock of 1 mg/mL, diluted up to 1:10,000. Stored at 4° C.; Substrate: TMB. Stored at 4° C.; and Stop solution: 2 N HCl. Stored at ambient temperature.
• 1. Coat 96-well plate with 2 μg/mL anti-CNP antibody final concentration per well in the coating buffer with a 50 μL volume and cover the plate with sealing cover. Put the plate at 4° C. overnight. • 2. Next day, remove the plate, wash thrice with wash buffer and tap the plate on the paper towel to remove excess solution. • 3. Add 300 μL of blocking buffer to each well using multichannel pipette. […] Add 50 μL stop solution and read plate at 450 nm with 600 as reference within 15 min. […]

[3] = system: NIH3T3 cells (cGMP secreted); assay: EC50 for CNP-Fc constructs, cGMP ELISA of NIH3T3 supernatant; format: cell-based; conditions: NIH3T3, 30 minutes, 1.8 mM IBMX, cGMP secreted by the cells; FIG. 25B
Protocol: EC50 for CNP-Fc described herein were measured by ELISA. 2.5E+05 NIH3T3 cells/well were plated. […] After 30 minutes, supernatant was collected for cGMP determined via ELISA. FIG. 25A illustrates a standard curve of cGMP.

[4] = biological target: T2, NPR-B on NIH/3T3 cells (NPR-B receptor positive cell line) (UniProt Q6VVW5 17-1047, limits assumed); assay: cell-based or functional assay
T2 sequence (looked up): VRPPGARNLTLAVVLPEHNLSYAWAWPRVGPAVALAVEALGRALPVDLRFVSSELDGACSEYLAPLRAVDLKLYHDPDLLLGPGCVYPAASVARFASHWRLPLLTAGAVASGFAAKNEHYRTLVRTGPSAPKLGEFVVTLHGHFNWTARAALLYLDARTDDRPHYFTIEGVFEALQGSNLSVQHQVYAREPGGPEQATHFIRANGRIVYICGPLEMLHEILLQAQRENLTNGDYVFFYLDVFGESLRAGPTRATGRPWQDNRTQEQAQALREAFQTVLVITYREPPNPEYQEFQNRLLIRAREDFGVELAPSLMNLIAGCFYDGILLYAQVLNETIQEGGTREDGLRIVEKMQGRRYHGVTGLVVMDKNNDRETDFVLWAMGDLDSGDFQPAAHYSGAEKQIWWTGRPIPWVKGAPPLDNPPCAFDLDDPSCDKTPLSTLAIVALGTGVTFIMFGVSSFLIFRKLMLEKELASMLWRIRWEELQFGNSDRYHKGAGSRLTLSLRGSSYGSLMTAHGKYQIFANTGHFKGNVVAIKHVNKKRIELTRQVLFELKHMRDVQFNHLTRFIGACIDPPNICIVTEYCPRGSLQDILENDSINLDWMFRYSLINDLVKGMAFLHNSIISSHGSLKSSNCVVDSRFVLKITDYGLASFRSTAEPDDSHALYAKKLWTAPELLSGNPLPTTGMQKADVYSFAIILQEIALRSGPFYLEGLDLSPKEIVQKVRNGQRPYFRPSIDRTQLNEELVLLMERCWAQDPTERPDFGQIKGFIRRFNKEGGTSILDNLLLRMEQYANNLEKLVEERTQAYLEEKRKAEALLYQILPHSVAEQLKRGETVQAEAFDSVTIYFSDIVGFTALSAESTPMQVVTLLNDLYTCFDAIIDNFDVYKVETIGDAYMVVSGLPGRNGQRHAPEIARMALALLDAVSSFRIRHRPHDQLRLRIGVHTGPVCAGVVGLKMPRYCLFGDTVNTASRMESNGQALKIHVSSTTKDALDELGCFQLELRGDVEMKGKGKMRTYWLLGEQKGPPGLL

## AMI087: purified CNP-Fc fusion protein CNP36-(G4S)4-Fc1, SEQ ID NO: 132
[1]; (FIG. 7C-7I)
  ka: 3.65E3
  kd: 1.53E-3
[1]; Table 32 summary of affinity
  ka: 3.65E+03
  kd: 1.53E−03
[2]
  Concentration: 33 µg/mL

## AMI269: fusion protein Fc4-(G4S)4-CNP22, SEQ ID NO: 136
[3]
  EC50 values (rank order): CNP-22 ≡Fc4-CNP36>Aflibercept-Fc4-CNP36>Fc1-CNP36>>Fc4-CNP22

B1: ANP (peptide, UniProt P01160 124-151, looked up)
peptide: SLRRSSCFGGRMDRIGAQSGLGCNSFRY
[4]
  EC50 (cGMP production, drawn table, row ANP): 112 nM
  EC50 (read off the curve), cGMP production: ~100 nM

Reference: US20250099622A1, “COMPOSITIONS AND METHODS FOR EXPRESSING THERAPEUTICS” (priority 2022, published 2025)
